Experimental data as given in US20100015058A1 (STANFORD UNIVERSITY, published 2010).

Tests used:
[1] = biological target: T1, gastrin-releasing peptide receptor (GRPR) (human, UniProt P30550 1-384); experiment: displacement of ^125I-[Tyr^4]BBN from PC-3 cells
T1 construct: whole, on cells; also called GRP receptor

integrin αvβ3 [2] = biological target: T2, integrin αvβ3 (human, UniProt P06756 31-1048; P05106 27-788); experiment: competitive binding with ^125I-c(RGDyK) on U87MG cells
T2 construct: whole, on cells; Endogenous receptor on U87MG human glioblastoma cells in the IC50 assays; also called integrin alpha v beta 3; human integrin αvβ3
Protocol: The best-fit 50% inhibitory concentration (IC₅₀) values were calculated by fitting the data with nonlinear regression using GraphPad Prism (GraphPad Software). Experiments were performed twice with triplicate samples.

integrin αvβ3 [3] = biological target: T2, integrin αvβ3; experiment: competitive displacement of ^125I-echistatin on U87MG cells
Protocol: (§1) The best-fit 50% inhibitory concentration (IC₅₀) values were calculated by fitting the data with nonlinear regression using Graph-Pad Prism (GraphPad Software, Inc.). Experiments were performed with triplicate samples.

[4] = biological target: T1, gastrin-releasing peptide receptor …; experiment: displacement of ^125I-[Tyr^4]BBN from 10^5 PC-3 cells
Protocol: as §1

[5] = biological target: T1, gastrin-releasing peptide receptor …; experiment: competitive binding with 125I-[Tyr4]BBN on PC-3 cells
integrin αvβ3 [6] = biological target: T2, integrin αvβ3; experiment: competitive binding with 125I-c(RGDyK) on U87MG cells
[7] = biological target: T1, gastrin-releasing peptide receptor …; experiment: competitive binding with 125I-[Tyr4]BBN on PC-3 cells; determined with NOTA-RGD-BBN
[8] = biological target: T1, gastrin-releasing peptide receptor …; experiment: displacement of ^125I-[Tyr^4]BBN from PC-3 cells; determined with FB-PEG3-RGD-BBN

T1 sequence (P30550 whole entry): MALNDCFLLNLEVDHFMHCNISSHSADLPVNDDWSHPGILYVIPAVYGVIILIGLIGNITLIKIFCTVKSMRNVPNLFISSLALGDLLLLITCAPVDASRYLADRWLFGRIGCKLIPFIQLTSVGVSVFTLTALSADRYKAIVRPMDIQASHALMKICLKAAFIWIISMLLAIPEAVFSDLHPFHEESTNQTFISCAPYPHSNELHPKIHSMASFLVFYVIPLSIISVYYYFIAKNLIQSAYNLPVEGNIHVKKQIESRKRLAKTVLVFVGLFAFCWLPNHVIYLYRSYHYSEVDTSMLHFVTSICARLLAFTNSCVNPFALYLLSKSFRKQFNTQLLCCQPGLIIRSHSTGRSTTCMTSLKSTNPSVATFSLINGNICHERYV
T2 sequence (P06756 31-1048, chain 1 of 2): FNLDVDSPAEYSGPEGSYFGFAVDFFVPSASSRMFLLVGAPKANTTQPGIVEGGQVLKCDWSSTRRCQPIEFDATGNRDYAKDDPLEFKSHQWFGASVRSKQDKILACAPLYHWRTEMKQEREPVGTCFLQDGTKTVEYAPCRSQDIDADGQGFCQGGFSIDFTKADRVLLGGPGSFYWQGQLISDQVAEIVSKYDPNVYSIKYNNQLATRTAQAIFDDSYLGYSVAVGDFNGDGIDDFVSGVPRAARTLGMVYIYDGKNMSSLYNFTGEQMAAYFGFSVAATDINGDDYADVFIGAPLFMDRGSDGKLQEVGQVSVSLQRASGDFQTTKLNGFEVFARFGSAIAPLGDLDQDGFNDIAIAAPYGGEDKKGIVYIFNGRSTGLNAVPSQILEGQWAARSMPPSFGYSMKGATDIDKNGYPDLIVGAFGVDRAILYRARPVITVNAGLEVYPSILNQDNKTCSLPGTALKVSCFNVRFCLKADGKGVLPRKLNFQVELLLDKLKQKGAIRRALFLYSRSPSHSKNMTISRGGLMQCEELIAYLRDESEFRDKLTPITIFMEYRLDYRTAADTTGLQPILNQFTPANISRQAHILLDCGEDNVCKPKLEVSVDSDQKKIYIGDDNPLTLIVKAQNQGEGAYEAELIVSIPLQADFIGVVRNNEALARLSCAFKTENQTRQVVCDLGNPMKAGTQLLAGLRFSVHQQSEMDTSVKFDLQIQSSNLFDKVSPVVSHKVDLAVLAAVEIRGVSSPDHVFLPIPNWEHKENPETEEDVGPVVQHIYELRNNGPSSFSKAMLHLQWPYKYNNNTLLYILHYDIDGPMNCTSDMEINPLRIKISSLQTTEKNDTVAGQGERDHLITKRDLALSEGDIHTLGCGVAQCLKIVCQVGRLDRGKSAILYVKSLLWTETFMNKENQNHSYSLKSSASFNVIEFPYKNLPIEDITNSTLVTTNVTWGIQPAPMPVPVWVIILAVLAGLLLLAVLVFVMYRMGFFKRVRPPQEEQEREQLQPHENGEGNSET
T2 sequence (P05106 27-788, chain 2 of 2): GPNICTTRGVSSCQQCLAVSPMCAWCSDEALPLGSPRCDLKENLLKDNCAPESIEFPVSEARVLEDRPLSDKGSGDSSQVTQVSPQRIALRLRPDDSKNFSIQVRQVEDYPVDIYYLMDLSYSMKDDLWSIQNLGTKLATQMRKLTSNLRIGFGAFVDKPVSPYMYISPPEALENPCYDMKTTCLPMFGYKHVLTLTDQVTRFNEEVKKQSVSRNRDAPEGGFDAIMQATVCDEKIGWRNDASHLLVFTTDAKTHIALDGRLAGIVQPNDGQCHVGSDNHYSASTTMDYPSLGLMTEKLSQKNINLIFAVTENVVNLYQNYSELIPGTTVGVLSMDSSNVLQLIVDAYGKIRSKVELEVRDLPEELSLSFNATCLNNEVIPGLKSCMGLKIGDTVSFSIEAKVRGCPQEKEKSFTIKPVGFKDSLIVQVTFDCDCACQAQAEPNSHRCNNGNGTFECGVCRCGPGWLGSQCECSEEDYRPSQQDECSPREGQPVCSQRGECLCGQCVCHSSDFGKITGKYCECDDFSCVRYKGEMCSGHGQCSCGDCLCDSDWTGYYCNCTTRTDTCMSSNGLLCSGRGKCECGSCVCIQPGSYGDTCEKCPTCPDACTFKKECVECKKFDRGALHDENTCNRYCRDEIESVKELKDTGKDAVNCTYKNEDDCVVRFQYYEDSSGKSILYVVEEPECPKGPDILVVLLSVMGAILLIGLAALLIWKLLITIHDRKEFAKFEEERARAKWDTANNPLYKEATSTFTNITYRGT

B1: RGD-BBN, cyclo(Arg-Gly-Asp-D-Tyr-Lys)-Glu-(Aca-Gln-Trp-Ala-Val-Gly-His-Leu-Met-NH2) (peptide)
peptide 1: RGDYK
peptide 2: EQWAVGHLM
modifications: free amino group on Glu; Glu side-chain carboxylate joined to Aca; Aca between Glu and Gln; C-terminal amide (Met-NH2); cyclic (cyclo); D-Tyr at position 4; Lys side chain ε-amine joined to the α-carboxylate of Glu
notes: also called Glu-RGD-BBN; RGD-bombesin
B1 gave an IC50 [1] of 67.9 nM and an IC50 (integrin αvβ3 [2]) of 17.9 nM.

B2: NH2-Glu-BBN(7-14)-c(RGDyK) (BBN-RGD) (peptide)
peptide 1: RGDYK
peptide 2: EQWAVGHLM
modifications: free amino group on Glu; Aca between Glu and Gln; C-terminal amide (Met-NH2); cyclic (cyclo); D-Tyr at position 4; Lys joined to one carboxylate of the Glu linker
notes: also called heterodimer BBN-RGD; BBN-RGD heterodimeric construct
B2 gave an IC50 (integrin αvβ3 [3]) of 428 nM and an IC50 [4] of 35.7 nM.

B3: DOTA-RGD-BBN (VIII) (peptide)
peptide 1: RGDYK
peptide 2: EQWAVGHLM
modifications: not fully specified; DOTA (from DOTA-OSSu) on the amine of RGD-bombesin; Aca between Glu and Gln; C-terminal amide (Met-NH2); cyclic (cyclo); D-Tyr at position 4; Lys side chain joined to the Glu linker
notes: also called DOTA-RGD-bombesin; ^64Cu-DOTA-RGD-BBN
With B3 the IC50 [5] was 85.8 nM and the IC50 (integrin αvβ3 [6]) was 21.6 nM.

B4: NOTA-RGD-BBN (VII) (peptide)
peptide 1: RGDYK
peptide 2: EQWAVGHLM
modifications: NOTA (from p-SCN-Bn-NOTA, SCN-amine reaction) on the amine of RGD-BBN; Aca between Glu and Gln; C-terminal amide (Met-NH2); cyclic (cyclo); D-Tyr at position 4; Lys side chain joined to the Glu …
notes: also called NOTA-RGD-bombesin; ^64Cu-NOTA-RGD-BBN
Work on B4 yielded an IC50 [1] of 55.9 nM and an IC50 [7] of 92.8 nM.

B5: PEG3-Glu-RGD-BBN (peptide)
peptide 1: RGDYK
peptide 2: EQWAVGHLM
modifications: not fully specified; PEG3 (11-amino-3,6,9-trioxaundecanoic acid) on the Glu amino group; Glu γ-carboxylate joined to Aca; Aca between Glu and Gln; C-terminal amide (Met-NH2); cyclic (cyclo); D-Tyr at position 4; Lys side chain ε-amine joined to the α-carboxylate of Glu
notes: also called PEG3-RGD-BBN
For B5, the IC50 [1] was 85.5 nM.

Aca-QWAVGHLM-NH2 (also called BBN monomer; cold BBN) [Aca-BBN(7-14), Aca-Gln-Trp-Ala-Val-Gly-His-Leu-Met-NH2]: no binding (integrin αvβ3 [2]).

B6: FB-NH-Glu-BBN(7-14)-c(RGDyK) (FB-BBN-RGD) (peptide)
peptide 1: RGDYK
peptide 2: EQWAVGHLM
modifications: 4-fluorobenzoyl (FB) on the Glu amino group; Aca between Glu and Gln; C-terminal amide (Met-NH2); cyclic (cyclo); D-Tyr at position 4; Lys joined to one carboxylate of the Glu linker
notes: non-radioactive FB form used in the IC50 assays; also called ^18F-FB-BBN-RGD
B6 showed an IC50 (integrin αvβ3 [3]) of 282 nM and an IC50 [4] of 32 nM.

B7: FB-PEG3-Glu-RGD-BBN (peptide)
peptide 1: RGDYK
peptide 2: EQWAVGHLM
modifications: 4-fluorobenzoyl (FB) on the amino group of the PEG3 spacer (11-amino-3,6,9-trioxaundecanoic acid), PEG3 on the Glu amino group; Glu γ-carboxylate joined to Aca; Aca between Glu and Gln; C-terminal amide (Met-NH2); cyclic (cyclo); D-Tyr at position 4; Lys side chain ε-amine joined to the α-carboxylate of Glu
notes: also called FB-PEG3-RGD-BBN; ^18F-FB-PEG3-Glu-RGD-BBN
Binder B7 has an IC50 [8] of 73.3 nM.
